One series concerns N=C(N)NCCC[C@H](N)C(=O)O. Kind of series: purified protein. Particulars: pH 5 (100 mM acetic acid-sodium acetate), 100 mM NaCl, 0.1 mM PLP, 10% glycerol, 20 °C, 10 nM Adc, decarboxylation to agmatine, parentheses = 2.5%-97.5% confidence interval.
Series [1] addresses Providencia stuartii arginine decarboxylase Adc (Providencia stuartii). The series is described as follows: cryo-EM structure; isolated Adc decamer, about 0.25 mg/mL, 25 mM MES, 150 mM NaCl, 1 mM DTT, 0.1 mM PLP, pH 6.5; D5 symmetry.
Series [2] shares this target. Kind of series: mass photometry; Refeyn OneMP; 30 nM Adc at pH 5.0 and 20 nM Adc at pH 6.5; only the decamer and species below it analysed.

For orientation: stoichiometry N means a count of units in the complex or per binding partner.

For “Providencia stuartii arginine decarboxylase (Adc) (Providencia stuartii)”, in the series on N=C(N)NCCC[C@H](N)C(=O)O, the Km is 0.331 (0.28, 0.38) mM and the kcat was 102 (97, 108) s^-1.
On to “Providencia stuartii arginine decarboxylase Adc (enzyme)”, for which the stoichiometry N in series [1] and in series [2] was 10 each time.
